Key:
[1] = target: mf CTLA-4 extracellular domain (aa 1-161) fused to the trans-membrane and cytoplasmic domain of hCD300a (aa 181-299), on Jurkat/NFAT-Luc cells (Macaca fascicularis; human) (UniProt G7PL88); experiment: cell-based or functional assay
[2] = target: hCTLA-4 extracellular domain (aa 1-161) fused to the trans-membrane and cytoplasmic domain of hCD300a (aa 181-299), on Jurkat/NFAT-Luc cells (human) (UniProt Q9UGN4); experiment: cell-based or functional assay
[3] = target: human CTLA-4 (amino acids M1-N223) on stably transfected VI-fibroblast cells (human) (UniProt P16410); experiment: ECL cell binding, VI-fibroblast/hCTLA-4 cells
Chain of human CTLA-4 (amino acids M1-N223) on stably transfected VI-fibroblast cells (human) (P16410 36-223 limits assumed): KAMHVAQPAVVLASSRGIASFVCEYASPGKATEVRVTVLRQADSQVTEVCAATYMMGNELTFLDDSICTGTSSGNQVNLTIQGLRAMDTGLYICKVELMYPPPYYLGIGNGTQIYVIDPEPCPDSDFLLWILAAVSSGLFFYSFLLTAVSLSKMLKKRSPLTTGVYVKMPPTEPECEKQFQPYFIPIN

Chain of mf CTLA-4 extracellular domain (aa 1-161) fused to the trans-membrane and cytoplasmic domain of hCD300a (aa 181-299), on Jurkat/NFAT-Luc cells (Macaca fascicularis; human) (Q9UGN4 other isoform, or with tags, fused parts or gaps, form in doubt): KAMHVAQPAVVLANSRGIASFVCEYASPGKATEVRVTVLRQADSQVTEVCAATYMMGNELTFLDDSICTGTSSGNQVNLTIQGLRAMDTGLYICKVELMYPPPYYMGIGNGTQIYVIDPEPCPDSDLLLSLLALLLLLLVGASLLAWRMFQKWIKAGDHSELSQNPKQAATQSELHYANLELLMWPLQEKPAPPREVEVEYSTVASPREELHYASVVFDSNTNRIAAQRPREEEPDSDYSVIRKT
Chain of hCTLA-4 extracellular domain (aa 1-161) fused to the trans-membrane and cytoplasmic domain of hCD300a (aa 181-299), on Jurkat/NFAT-Luc cells (human) (Q9UGN4 other isoform, or with tags, fused parts or gaps limits assumed, form in doubt): as the sequence (Q9UGN4 other isoform, or with tags, fused parts or gaps, form in doubt) above, with N14S, M106L counted along it

Work on hIgG1 Isotype Control (antibody) yielded a Fold induction of IL-2 at 100 nM, APC HEK293/hCD20/hCD86 (isotype control) [1] of 1.1 fold, a Fold induction of IL-2 at 100 nM, APC HEK293/hCD20/hCD80 (isotype control) [2] of 0.8 fold and a ratio of RLU signal to parental VI-fibroblast at 0.4 nM Ab [3] of 1.

hIgG2 Isotype (antibody) was tested, and the Fold induction of IL-2 at 100 nM, APC HEK293/hCD20/hCD86 (isotype control) [1] was 1 fold and the Fold induction of IL-2 at 100 nM, APC HEK293/hCD20/hCD80 (isotype control) [2] was 1 fold.

With mIgG2 Isotype Control (antibody) the ratio of RLU signal to parental VI-fibroblast at 0.6 nM Ab [3] was 1.

— US20210040232A1
